Substrate in the data set: NC(=O)c1ccc[n+]([C@@H]2O[C@H](COP(=O)(O)OP(=O)(O)OC[C@H]3O[C@@H](n4cnc5c(N)ncnc54)[C@H](O)[C@@H]3O)[C@@H](O)[C@H]2O)c1
Briefly: purified protein. The data set is classed as biochemical, Haloferax volcanii. The conditions noted are these: 2.0 M KCl, G6P co-substrate, pH 7.5, 25 °C, varied: cofactor.

B1: HvG6PDH (Haloferax volcanii DS2) (protein)
chain: MDQPVLLTGAGGRVGQAILGHIGDAYDWRLLDREPLSDEKIPDSVDSTEVYVADVTDETAVRNAMDGVHAVIHLAGDPRPEAPWDSVLRNNIDGTQQMFDAAVDVGVEKFAFASSNHAVGAYETTDRTPDMYRPHHEFRLDGTELPRPSNLYGVSKAAGETLGRYYHDHHDISVVNVRIGNLTQHHPPKEYERGQAMWLSYRDCGHLFECCIEADYDYEIVYGISDNDRKYYSIDRARAVLGYDPQDNSAEFTFEGEPLDEA
notes: modelled as dimer
Take B1: the Km (in general, the substrate concentration at which the rate is half of its maximum) was found to be 280 ± 68 µM; the kcat – broadly, the number of substrate molecules converted per active site and unit of time at saturation – was 48.5 ± 4.3 s⁻¹.

Source of the values: PMC8506132, “Structural and Kinetic Insights Into the Molecular Basis of Salt Tolerance of the Short-Chain Glucose-6-Phosphate Dehydrogenase From Haloferax volcanii” (Frontiers in Microbiology, 2021).
